From patent US20110093983A1, “ALGAL GLYCEROL-3 PHOSPHATE ACYLTRANSFERASE” (National Research Council of Canada, priority 2008, published 2011)

Test system: yeast gat1 mutant
Test: Lipidomic analysis of phospholipids from yeast gat1 transformed with TpGPAT or GAT1, fed EPA or DHA
Format: cell-based, Saccharomyces cerevisiae
Conditions: tandem mass spectrometer lipidomics
Text: FIG. 4 graphically depicts the results of the lipidomic analysis (fatty acid composition) of the lipids from yeast gat1 mutants transformed with either TpGPAT1 or GAT1. Yeast cells expressing TpGPAT or yeast GAT1 were fed with EPA (20:5) or DHA (22:6) upon induction of the genes. Total lipids from the yeast cells were extracted and subjected to lipidomic analysis using a tandem mass spectrometer. The results are presented as the molar ratio of EPA- or DHA-containing phospholipids (PC, PE, PS, PI) in the total phospholipids.
To further determine the role of TpGPAT in the incorporation of VLGPUFAs into glycerolipids, yeast gat1 strain transformed with TpGPAT or GAT1 under the control of the GAL1 promoter was grown in the presence of EPA (20:5) or DHA (22:6) upon induction of the genes. Phospholipids were extracted and subjected to lipidomic analysis using a tandem mass spectrometer (testing conducted by the Kansas Lipidomics Research Center). […] It was thus concluded that TpGPAT has a role in controlling PUFA accumulation in glycerolipid.

B1: GAT1: yeast (S. cerevisiae) glycerol-3-phosphate acyltransferase gene GAT1 expressed under GAL1 promoter as comparator (protein, listed as Saccharomyces cerevisiae)
chain: MSAPAADHNAAKPIPHVPQASRRYKNSYNGFVYNIHTWLYDVSVFLFNILFTIFFREIKVRGAYNVPEVGVPTILVCAPHANQFIDPALVMSQTRLLKTSAGKSRSRMPCFVTAESSFKKRFISFFGHAMGGIPVPRIQDNLKPVDENLEIYAPDLKNHPEIIKGRSKNPQTTPVNFTKRFSAKSLLGLPDYLSNAQIKEIPDDETIILSSPFRTSKSKVVELLTNGTNFKYAEKIDNTETFQSVFDHLHTKGCVGIFPEGGSHDRPSLLPIKAGVAIMALGAVAADPTMKVAVVPCGLHYFHRNKFRSRAVLEYGEPIVVDGKYGEMYKDSPRETVSKLLKKITNSLFSVTENAPDYDTLMVIQAARRLYQPVKVRLPLPAIVEINRRLLFGYSKFKDDPRIIHLKKLVYDYNRKLDSVGLKDHQVMQLKTTKLEALRCFVTLIVRLIKFSVFAILSLPGSILFTPIFIICRVYSEKKAKEGLKKSLVKIKGTDLLATWKLIVALILAPILYVTYSILLIILARKQHYCRIWVPSNNAFIQFVYFYALLVFTTYSSLKTGEIGVDLFKSLRPLFVSIVYPGKKIEEIQTTRKNLSLELTAVCNDLGPLVFPDYDKLATEIFSKRDGYDVSSDAESSISRMSVQSRSRSSSIHSIGSLASNALSRVNSRGSLTDIPIFSDAKQGQWKSEGETSEDEDEFDEKNPAIVQTARSSDLNKENSRNTNISSKIASLVRQKREHEKKE
- Molar percentage of DHA in phospholipids (yeast gat1 fed DHA (22:6)): 0.235%
- Molar percentage of EPA in phospholipids (yeast gat1 fed EPA (20:5)): 2.025%
